According to US20260258115A1 (MAPP BIOPHARMACEUTICAL, published 2026):
Where a chain is given by its changes, count along the chain named.

B1: ADI-21085 (antibody, V domains shown)
VH: EVQLVETGGGLVKPGGSLRLSCEASGFNFRSYSMNWVRQAPGKGLEWVSSISASSSYINYADSVKGRFTISRDNSKNSLYLQMNSLRAEDTGVYYCARVLVHYYYGMDVWGQGTTVTVSS
VL: QSVLTQPPSVSAAPGQRVTISCTGTSSNIGAGYDVHWYQQLPGRAPKLLILGNNNRPSGVPDRFSGSKSGTSASLAITGLQAEDEADYYCQTYDKTLMEIFGGGTKLTVL
notes: also called Ab 330
B2: ADI-21083 (antibody, V domains shown)
VH: QVQLQESGPGLVKPSGTLSLTCAVSGDSITTSNWWSWVRQPPGKGLEWIGEIYHSGVTRYNPSLKSRLSISLDKSRNQFSLKLSSVTAADTAVYYCARDEALFGHWFDPWGQGTLVTVSS
VL: QSVLTQPRSVSGSPGQSVTISCTGSSSDIGSYNYVSWYQQHPGKAPKLMLYDVSKRPSGVPDRFSGSKSVKTASLTISGLQAEDEADYYCCTYAGNSVVFGGGTKLTVL
B3: ADI-21091 (antibody, V domains shown)
VH: QVQLVQSGAEVKKPGESLRISCQYSAYGFSTYWISWVRQLPGKGLEWMGRIDPSDSHTTYSPSFQGHVTLSADKSISTVYLQWSSLKASDTAMYYCARHQEYSGSDLDSWGQGTLVTVSS
VL: QPVLTQPPSVSAAPGQRVTISCSGTRSNIGYNFVSWYQQLPGTAPKLLIYDNNKRPSGIPDRFSGSKSGTSATLAITGLQTGDEADYYCGTWDSSLSALFGGGTKVTVL
B4: ADI-21076 (antibody, V domains shown)
VH: EVQLVESGGGLVRPGGSLRLSCAASGFTFSSYAMDWVRQAPGKGLEWVSSISASSSFISYTDSVKGRFTISRDNAKNSLFLQMDNVTAEDTAVYYCARDYYESGRYFYGNPFDIWGQGTMVTVSS
VL: QPVLTQPPSVSGAPGQRVTISCTGSGSNIGAGFDVHWYQQLPGTAPKLLIYANSDRPSGVPDRFSASKSGTSASLAITGLQAEDEAHYYCQSYDNSLGGLCVFGTGTKLTVL
B5: ADI-21084 (antibody, V domains shown)
VH: EVQLVESGAEVKKPGASVTVSCKASGYTFTSNTISWLRQAPGQGLEWLGWVSASNGNTKYAQKFQGRVTMTTDTSATTAYMEVRTLRHDDTAIYYCARDILDMGGFHFDNWGQGTLVTVSS
VL: SYVLTQPPSVSVAPGQTARITCGGNNIGNKHVHWYKQKPGQAPVLVVYDDSDRPSGIPERFSGSNSGNTATLTVSRVEAGDEADFYCQVWDNTNDHPVFGGGTKVTVL
B6: ADI-21068 (antibody, V domains shown)
VH: QVQLQESGPGLVKPSGTLSLTCVVSGGSIKSHNYWTWVRQPPGKGLEWVGEIYQSGRTNYNPSLNSRVTLSMDKSKNQLSLRLTSVTAADTAVYFCVGGGPFAPYYFQTWGQGTLVTVSS
VL: QSVLTQPPSVSGAPGQRVTISCTGSSSNIGAGYDVHWYQQLPGTAPKLLIYNNNNRPSGVPDRFSGSKSGTSASLAITGLQAEDEADYYCQSYDTSLSGYVFGTGTKVTVL
B7: ADI-41836 (antibody, V domains shown)
VH: EVQLLESGAEVKKPGASVKVSCRASGYTFTSNTLHWVRQAPGQGLEWMGWINADNGNTRYSQKFQGRVTITRDTSANTAYMELSSLISEDTAVYYCAREWSGFWSGLNWFEPWGQGTLVTVSS
VL: QSVLTQPPSVSGAPGQRVTISCTGSSSNIGSGNDVHWYQQFPGTAPKVLIYVNSIRPSGVSDRFSGSKSGTSASLAITGLRAEDEADYYCQSYDSSLNGVAFGGGTKLTVL
B8: ADI-41820 (antibody, V domains shown)
VH: EVQLVESGGGVVQPGRSLRLSCAVSGFTFSTYGMHWVRQTPGRGLEWVAVISYDGNHKYYADSVMGRFTISRDNSKDTLYLQVNSLRPEDSAVYYCAKDRIHCPNGVCYVHSSFYGLDVWGQGTTVTVSS
VL: QTVVTQEPSLTVSPGGTVTLTCGSSTGAVTSGHYPYWLQQKPGQAPRTLIYDTTNKDSWTPARFSGSLLGGKAALTLSGAQPEDEAQYYCLLSFNGPYWVFGGGTKVTVL
notes: also called Ab 926; Antibody Number 926
B9: ADI-41839 (antibody, V domains shown)
VH: EVQLLESGGGVVQPGGSLRLSCVASGFTFSAYGMHWVRQAPGKGPEWVAMTRSDGNKIYYADSVKGRFTISRDDSKNTLYLEMNSLRPDDTAVYFCAKEVGYGGNSLHYWGQGTLVTVSS
VL: SYELIQPPSVSVAPGQTAKITCGGNNIGSKSVHWYQQKPGQAPVLVVFDDSDRPSGIPERFSGSNSGNTATLTISRVEAGDEADYYCQVWDFSSDLWVFGGGTKLTVL
notes: also called Ab 939; Antibody Number 939
B10: ADI-41838 (antibody, V domains shown)
VH: EVQLLESGGGVVQPGRSLRLSCAASEFTFRSYAMHWVRQAPGMGLEWVAVTPYDGISKYYADSVKGRFTISRDNSKNTLYLQMNSLRPEDTAVYYCARGFPEPITSWPGYFYAMDVWGQGTTVTVSS
VL: QSALTQPASVSGSPGQSITISCTGTTSDVGVYNYVSWYQQHPGKAPKLMIYDVSNRPSGVSNRFSGSKSGNTASLTISGLQAEDEADYYCSSYTNSDTPVVFGGGTKLTVL
notes: also called Ab 938; Antibody Number 938
B11: ADI-41815 (antibody, V domains shown)
VH: EVQLLESGGGLVKPGGSLRLSCGASGFTFSTSSFNWVRQAPGKGLEWVSSISSTSSYVFYADSVKGRFTVSRDNAQNSLYLQMNSLRAEDTAVYYCARARGVGATIGFDYWGQGTLVTVSS
VL: not shown
notes: also called Ab 922; Antibody Number 922
B12: ADI-41833 (antibody, V domains shown)
VH: EVQLLESGGGLVQPGGSLRLSCAASRFTFSTYAMSWVRQAPGKGLEWVSSISGSGDKTFYTDSVKGRFTISRDNSKNTLYLQMNSLRAEDTAVYYCARESYYELWTGTYPGWELDYWGQGTLVTVSS
VL: DIQLTQSPSSLSASVGDRVTITCRASQDISNYLAWYQQKPGKPPKLLIYAASILESGAPSRFSGSGSGTDFTLTISSLQPEDVGTYYCQKSNSAPRPFGQGTKVEIK
B13: ADI-41827 (antibody, V domains shown)
VH: EVQLSESAGGVVQPGGSLRLTCAASGFSFSTNGMHWVRQAPGKGLEWVAFIRYDGSKKYYAESVKGRFTISREDSNNTLYLQMNSLRPEDTAVYYCAKEDCSGGTCYHERNYYYYGMDVWGQGTTVTVSS
VL: QPVLTQPPSLPVSPGQTASITCSGDKLEYKYACWYQHKPGQSPVLVIYQDNKRPSGIPERFSGSNSGNTATLTISGTQPMDEADYYCQAWDSSTVVFGGGTKVTVL
B14: ADI-43641 (antibody, V domains shown)
VH: EVQLVESGGGLVKPGGSLRLSCAASGFTFSDYYMSWIRQAPGKGLEWVSYISSSSSYTNYADSVKGRFTISRDNAKNSLYLQMNSLRAEDTAVYYCARDFSGQWLVLGYGMDVWGQGTTVTVSS
VL: B6 VL with L4V, N52G, N54S, T95S, Y100P, T104G, V108L
notes: also called Ab 946; Antibody Number 946
B15: ADI-43642 (antibody, V domains shown)
VH: EVQLLESGGGLVKPGGSLRLSCAASGFTFSSYSMNWVRQAPGKGLEWVSSISSSSSYIYYADSVKGRFTISRDNAKNSLYLQMNSLRAEDTAVYYCARDGADSSYYYYMDVWGKGTTVTVSS
VL: B6 VL with S2A, L4V, N52G, N54S, T95S, Y100S, T104G, V108L
notes: also called Ab 947; Antibody Number 947
B16: ADI-41837 (antibody, V domains shown)
VH: QVQLVQSGAEVKKPGASVKVSCKASGYTFTSYGISWVRQAPGQGLEWMGWISAYSGDTDYAQKLQGRVTMTTDTATSTAYMELRSLRSDDTAVYYCARDAHCSSTNCYIDLGGAPVDYWGQGTLVTVSS
VL: DIVLTQTPLSLSVTLGQPASISCRSSQSLVYIDGYTYLNWFQQRPGQSPRRLIYKVSNRDSGVPDRFSGSGSGTDFTLKISRVEAEDVGVYYCMQGAHWPWTFGQGTKVEIK
notes: also called Ab 937; Antibody Number 937

These binders were tested against RSV F on recombinant mKate-RSV A2 virus (Respiratory syncytial virus A2, UniProt P03420 26-574) (assay: cell-based or functional assay).

Binder	Neut IC50 (ug/ml) subtype A [µg/mL]
B1	0.1
B2	0.36
B3	0.29
B4	0.03
B5	0.14
B6	0.1

The binders below were run against RSV F on recombinant mKate-RSV B 18537 virus (Respiratory syncytial virus B 18537, UniProt P13843 26-574) (assay: cell-based or functional assay).

Binder	Neut IC50 (ug/ml) subtype B [µg/mL]
B1	0.48
B2	0.79
B3	0.92
B4	0.3
B5	0.46

What follows are binders tested against RSV F on RSV subtype A virus (RSV-A2) (Respiratory Syncytial Virus, subtype A, …, UniProt P03420 26-574) (assay: cell-based or functional assay).

Binder	Neutralization IC50 (RSV subtype A) [µg/mL]
B7	> 25
B8	> 25
B9	> 25
B10	> 25
B11	> 25
B12	0.02
B13	> 25
B14	> 25
B15	> 25
B16	> 25

These binders were tested against RSV prefusion F, subtype A (preF, DS-Cav1 trimer) (Respiratory syncytial virus subtype A, UniProt P03420 26-513) (assay: BLI, IgG apparent affinity).

Binder	Kd [nM]
B1	0.307
B2	2.25
B3	0.749
B4	0.219
B5	0.109
B6	0.255

These binders were tested against T1, RSV postfusion F, subtype A (postF, F ΔFP trimer) (Respiratory syncytial virus subtype A, UniProt P03420 26-513) (assay: BLI, IgG apparent affinity).
T1 construct: also called Postfusion subtype A

Binder	binding result	Kd [nM]
B1	no binding	
B2	no binding	
B3	no binding	
B4		7.34
B5		17.3
B6		15.5

What follows are binders tested against T2, RSV postfusion F, subtype B (postF trimer) (Respiratory syncytial virus subtype B, UniProt P13843 26-513) (assay: BLI, IgG apparent affinity).
T2 construct: also called Postfusion subtype B

Binder	Kd [nM]	binding result
B1	6.24	
B2		no binding
B3		no binding
B4	6.28	
B5	22.9	
B6	7.85	

The binders below were run against RSV postfusion F (postF), F ΔFP trimer, subtype A (Respiratory Syncytial Virus, subtype A, UniProt P03420 26-513) (assay: BLI, IgG on anti-human IgG sensors).

Binder	binding result
B7	no binding (tested: 100 nM antigen)
B8	no binding (tested: 100 nM antigen)
B9	no binding (tested: 100 nM antigen)
B10	no binding (tested: 100 nM antigen)
B11	no binding (tested: 100 nM antigen)
B12	no binding (tested: 100 nM antigen)
B13	no binding (tested: 100 nM antigen)
B14	no binding (tested: 100 nM antigen)
B15	no binding (tested: 100 nM antigen)
B16	no binding (tested: 100 nM antigen)

What follows are binders tested against RSV prefusion F (preF), DS-Cav1 stabilized trimer, subtype A (Respiratory Syncytial Virus, subtype A, UniProt P03420 26-513) (assay: BLI, IgG on anti-human IgG sensors, 100 nM antigen, apparent KD).

Binder	Kd [nM]
B7	5.74
B8	64.9
B9	7.88
B10	32.1
B11	3.21
B12	0.723
B13	0.186
B14	37.5
B15	43.2
B16	7.09
